Measured values as given in patent US12569569B2, “Nano-delivery system and therapeutic and diagnostic use thereof” (NANOCARRY THERAPEUTICS LTD., priority 2020, dated 2026).

Test: ICP-MS quantification of Au and Pt in mice brains after IV cisplatin+insulin-GNPs
Type: in vivo, Male BALB/c mice
Details: 8 hours post-administration
Procedure: Male BALB/c mice aged 6-7 weeks were administered intravenously through the tail vein with 200 μl of cisplatin+insulin-GNPs (approximately 0.1 mg of cisplatin according to ICP-MS measurement of Pt concentration) (n=3), or with equivalent dose of free Cisplatin (100 μl, 1 mg/ml) (n=3). Mice were sacrificed 8 hours post-administration. The mice underwent perfusion using 20 ml saline to remove all the particles residing within the blood vessels.
After sacrifice and perfusion, mice brains were extracted and weighted followed by ICP-MS analysis to quantify the amounts of Au and Pt within the brain.

cisplatin+insulin-GNPs: 20 nm GNPs with mPEG-SH 5 kDa, PEG 1 kDa conjugated to cisplatin, PEG 5 kDa conjugated to insulin (60:20:20)
Au and Pt within the brain (ICP-MS) (IV 200 μl, after perfusion): both gold and platin were found within the brains | Amount of Pt within the brain compared to equivalent dose of free cisplatin (IV): significantly higher
